Sequences and labels used below:
B1: Halo-tagged human cytomegalovirus immediate early 1 protein (hIE1) [human cytomegalovirus (HCMV)] / NanoLuciferase-tagged human promyelocytic leukemia protein (hPML) [human] (parent complex)
chain 1: MESSAKRKMDPDNPDEGPSSKVPRPETPVTKATTFLQTMLRKEVNSQLSLGDPLFPELAEESLKTFEQVTEDCNENPEKDVLAELVKQIKVRVDMVRHRIKEHMLKKYTQTEEKFTGAFNMMGGCLQNALDILDKVHEPFEEMKCIGLTMQSMYENYIVPEDKREMWMACIKELHDVSKGAANKLGGALQAKARAKKDELRRKMMYMCYRNIEFFTKNSAFPKTTNGCSQAMAALQNLPQCSPDEIMAYAQKIFKILDEERDKVLTHIDHIFMDILTTCVETMCNEYKVTSDACMMTMYGGISLLSEFCRVLCCYVLEETSVMLAKRPLITKPEVISVMKRRIEEICMKVFAQYILGADPLRVCSPSVDDLRAIAEESDEEEAIVAYTLATAGVSSSDSLVSPPESPVPATIPLSSVIVAENSDQEESEQSDEEEEEGAQEEREDTVSVKSEPVSEIEEVAPEEEEDGAEEPTASGGKSTHPMVTRSKADQ
chain 2: MEPAPARSPRPQQDPARPQEPTMPPPETPSEGRQPSPSPSPTERAPASEEEFQFLRCQQCQAEAKCPKLLPCLHTLCSGCLEASGMQCPICQAPWPLGADTPALDNVFFESLQRRLSVYRQIVDAQAVCTRCKESADFWCFECEQLLCAKCFEAHQWFLKHEARPLAELRNQSVREFLDGTRKTNNIFCSNPNHRTPTLTSIYCRGCSKPLCCSCALLDSSHSELKCDISAEIQQRQEELDAMTQALQEQDSAFGAVHAQMHAAVGQLGRARAETEELIRERVRQVVAHVRAQERELLEAVDARYQRDYEEMASRLGRLDAVLQRIRTGSALVQRMKCYASDQEVLDMHGFLRQALCRLRQEEPQSLQAAVRTDGFDEFKVRLQDLSSCITQGKDAAVSKKASPEAASTPRDPIDVDLPEEAERVKAQVQALGLAEAQPMAVVQSVPGAHPVPVYAFSIKGPSYGEDVSNTTTAQKRKCSQTQCPRKVIKMESEEGKEARLARSSPEQPRPSTSKAVSPPHLDGPPSPRSPVIGSEVFLPNSNHVASGAGEAEERVVVISSSEDSDAENSSSRELDDSSSESSDLQLEGPSTLRVLDENLADPQAEDRPLVFFDLKIDNETQKISQLAAVNRESKFRVVIQPEAFFSIYSKAVSLEVGLQHFLSFLSSMRRPILACYKLWGPGLPNFFRALEDINRLWEFQEAISGFLAALPLIRERVPGASSFKLKNLAQTYLARNMSERSAMAAVLAMRDLCRLLEVSPGPQLAQHVYPFSSLQCFASLQPLVQAAVLPRAEARLLALHNVSFMELLSAHRRDRQGGLKKYSRYLSLQTTTLPPAQPAFNLQALGTYFEGLLEGPALARAEGVSTPLAGRGLAERASQQS

The assay covers variants of B1. Put plainly: NanoBRET; HEK293T cells transfected 24 h; 4 h incubation with Halo ligand; detection time 5 s at 618 nm and 448 nm; parent: 23; read off a plot. (In general: In BRET a luciferase serves as donor, and the signal depends on an acceptor being close.)
For chain 1 MESSAKRKMDPDNPDEGPSSKVPRPETPVTKATTFLQTMLRKEVNSQLSLGDPLFPELAEESLKTFEQVTEDCNENPEKDVLAELVKQIKVRVDMVRHRIKEHMLKKYTQTEEKFTGAFNMMGGCLQNALDILDKVHEPFEEMKCIGLTMQSMYENYIVPEDKREMWMACIKEPHDVSKGAANKLGGALQAKARAKKDELRRKMMYMCYRNIEFFTKNSAFPKTTNGCSQAMAALQNLPQCSPDEIMAYAQKIFKILDEERDKVLTHIDHIFMDILTTCVETMCNEYKVTSDACMMTMYGGISLLSEFCRVLCCYVLEETSVMLAKRPLITKPEVISVMKRRIEEICMKVFAQYILGADPLRVCSPSVDDLRAIAEESDEEEAIVAYTLATAGVSSSDSLVSPPESPVPATIPLSSVIVAENSDQEESEQSDEEEEEGAQEEREDTVSVKSEPVSEIEEVAPEEEEDGAEEPTASGGKSTHPMVTRSKADQ [chain 1 L174P], the response is roughly 1.2 mBU.

These data come from publication PMC9331606 (2022).
